Results as given in the DeepSol protein solubility set.

Assay: soluble on expression in E. coli; label from the status in PepcDB or PDB records

Sequence | soluble on expression in E. coli
MGSDKIHHHHHHMTIDLTPYLPSQGPKYLAIARALAEAIRQGELTPGTRLPPHRCLADALAVSVQTVSRAYAQAEKMGLVQARVGSGTWINTLDDSQEAEYLRSADLPTEGAPVDLSIAHPVCPPGHHLRFRETLREVADSAHPDAIDACRPIAGLAHQRERASHWLQETLGVPGTPDDRVLCNGAAHGVMLAIATLVQHGDVVLTEALTDHGLIALSRTLGLQLRGVAIDEQGVIPEALDAACRRYHPRAVCLTPTQHNPTGATMDADRRDAIAEVLARHGTWLIEDDTHALLEPPGLTPLTARLPRQSFHVTSLTKATVPGLRAGYLSVPRGQLHHTLPRLRATSWMATPLIFEIADRWLADGSVEALAEEQRQLLAERQQLTRSRLQGHVMASRPTGLHVWLALPRAWRAEELQQQALREGLAIATAQPFMVGQGAPPQRVRLSLGAENDLERFDQGLTILARLLGEAPPPMLQNV | not soluble
MAHHHHHHMKYNEAQMRFYLLCLNMKQANTKEDKSQKISNSSTIDEIEEEQLYTGPLKIEQLLAKGFVKRDLELLKEGGLQTVECVAYAPMRTLCAIKGISEQKAEKLKKACKELCNSGFCNAIDYHDARQNLIKFTTGSKQLDALLKGGIETGGITELFGEFRTGKSQLCHTLAITCQLPIEQSGGEGKCLWIDTEGTFRPERIVAIAKRYGLHPTDCLNNIAYAKAYNCDHQTELLIDASAMMADARFALLIVDSATALYRSEYIGRGELANRQSHLCRFLRGLQRIADIYGVAVIITNQVVAKVDAMSMFGGHEKIPIGGNIIAHASQTRLYLRKGRGESRICKIYDSPVLPEGEAVFAITEGGIADYEEK | not soluble
MKVGNQMNEEQLSKRLEKVASYITKNERIADIGSDHAYLPCFAVKNQTASFAIAGEVVDGPFQSAQKQVRSSGLTEQIDVRKGNGLAVIEKKDAIDTIVIAGMGGTLIRTILEEGAAKLAGVTKLILQPNIAAWQLREWSEQNNWLITSEAILREDNKVYEIMVLAPSEKPVTWTKQEIFFGPCLLKEQSAIFKSKWRHEANTWQNIIQTISNNQPVSTENQAKIRELEHKIALVEDVLK | not soluble
PVFILGHWRSGTTFVHNVFSCDSHFGYNTTYQTVFPHLMMWGQPFFKKNMSWLMPDKRPTDNMELAVDLPQEEEFALANMMPYTYYNFWFLPRYQQEYADKYLLFDTISEAELKVFEETFTKLIKISLWNTQGTQFLSKNPPHTGRVKELVKMFPNAKFIYLMRNPYTVFESTRSFFTNTIQPLKLQDITPAELENNILSIYAKLYHKYEADKQFIPEGNLMEVKFEDFEADAMGMTENIYHALDIPGFAEARGSIEKYVGGKKGYKKNKYKYDDRTVQLVQDHWDFALKQWDYSL | not soluble
MLAKQRFVLDTTAFTDNQLRELLGDGDLNLSVDRMLDLIARSRIKLNISCHMPPITYKEFTDYMTRYDCPEETLIKAETWIVKKTPNRYDTQIPSQIFYEYVHDIRERMNKGLRISETLLWEAGIQSIIMASRDVKKTEIESEVLGKAIKDLRKKYRSALRKGTLDSAPDLDVLLLAKELGAGVVAADDGIRVWAERLGLRFLNATSFPKMLKEYLKYYE | not soluble
MSLDTYTTSEVADLIGVHPNTVRLYEELNLIPKPKRNTNGYRIFNDFHIEQFRFARTALKIEVVQRGLRKDALEIVRTSANRDFDKAISLVNQYLQQLEIEKSNAEEALTIVAQILNGNTPETNKLFLTRKETAEHLNVTIDTLRNWEMNGLLKVKRKQNGYRVYTDEDIKRLKIISALRCANYSLSAILRMLNALSSNPNTNIKTVLDTPKDDDEIISVCDKLITSLKEAEHNAKTMKSHLQIMKKQFSEGHHHHHH | soluble
MLSVDYENFDLISYLYNLVRQIPDGMVSTYGDLAEALGDPVAARSVGFMLSINKEPDYIPCYKVVPHDGSVGNYTHPLGSAEKMRRLIRDGITITNGHISNFEKVRFREFKTDYPLRKLRELQFKIGRLYDDRNDYSLDTIAAFDVSYKETRGYASKVVYNKGKIGAYVYSSDSMFPYIPGYLAFKEFKFIRALYDNETMILIDGNGILHPRFAGLATHAGVSLKTASIGIAKHLINCTVKGSDLLISGVVAGKMIGHHTIVSPGNRINVEEAGRLIEQREGKEMRSLLRLAHNLTRLHIETNGNIARYDFSTRNTAIQSSLEHHHHHH | not soluble
SMSETFDVELTKNVQGLGITIAGYIGDKKLEPSGIFVKSITKSSAVEHDGRIQIGDQIIAVDGTNLQGFTNQQAVEVLRHTGQTVLLTLMRRGETSV | soluble
MSLSYTEEWVTARARGAYEHGRASFDVRPERTALLVIDMQDEFVRPGWSPYWVPAATRMAPRLRRLIEGCRSAAVPVIWSIFDDTHLGLDRPKALGYLPHADTDWRRPGPAEVWDQMGRRPDEALIRKPSYGAFYDTPLDTMLRNLGRDTVIVTGTLTNYCCGTTARQAYERGYKVVFGADVTATDDESRQEPELAVLRKGFALVLTAEEITNQLAEGHHHHHH | soluble
MGSDKIHHHHHHMKNLEQRKSWYAEVAINYTSQQRKNWYNDVADAYNRTRPRYPQQLVSRVVELAQLPQNAAILEVGCGPGTATTAFAQLGFSMVCLEPSQNSSQLAQQNCSPYPNVEIINTSFEEWPLEPGKFDAVLAATSFHWVSPEIGYSKAADALKDHCSLILLWNMTPQPEYEVYQRLHEVYQAQAPTLERYEEQEAQEKHLRRFGKAVIDSGRFQDLVSEQLRCDVTYSIDDYLTLLSTLSPYIALDSQQRNSLFTSLRETLEKHCGSSVEISYLSAFHVAKKI | not soluble
MGSDKIHHHHHHMSQLLIKNAYLITMNADREVYENGSILIENNIIKEVGKFDINIVDKDAEIYDAKGKILMPGLVNTHVHLSQQLGRGLADDVVLLTWLRERIWPYESSFNYEDSLISSTACCVELIKSGVTTFLESGGQYVDAMVEAVDKTGLRACLAKSVMDTGDGLPEAWQKTTDEEINTQLDLFHKFNNTSNERIKIWFALRTIFNTTEELLVRTKELADKYNTGIHMHIAEIADEISFVKQNNGVGTVEYLDKLGVLGPNLLAAHTVWLTHKEIDLFRLHDVKVSHDPGSAMKVVLGFASIPEMLEKGIPVSIGTDGAPSNNRMDLMRDMYLTSLIHKGRTLNPTVVPAEEVLEMATINGAKCALLEKEIGSLEVGKKADMIILNPDTIHCLPMHNPIGNIVYSMTSENVDSTICDGKWLMKERKVLVVDESELLNKVKKQASKIKDKAEVKIPSKFKIIK | not soluble
MSWINRIFSKSPSSSTRKANVPEGVWTKCTACEQVLYSEELKRNLYVCPKCGHHMRIDARERLLNLLDEDSSQEIAADLEPKDILKFKDLKKYKDRINAAQKETGEKDALITMTGTLYNMPIVVAASNFAFMGGSMGSVVGAKFVKAAEKAMEMNCPFVCFSASGGARMQEALFSLMQMAKTSAVLAQMREKGVPFISVLTDPTLGGVSASFAMLGDLNIAEPKALIGFAGPRVIEQTVREKLPEGFQRSEFLLEKGAIDMIVKRSEMRQTLASVLSKLTNQPSPFVEPELISEDE | not soluble
GIDIDLQMLGERLLKNKIGSIVAIEPETGEILCMVSSPDFDPRLMIGRQRGKNHLMLQRDPMKPLLNRSIMGVYPPGSTFKTAQALTFLQEGIIQTNTPAFPCAHGFNYGSLHVGCHAHGSPLPLIPAIATSCNSYFCWGLFRMFGDRKYGSSQNAITVWKDHMVSQGFGYKLGVDLPGEKRGLIPNAQFYDKAYRGRWNGLTVISIAIGQGEILATPLQIANLGATIANRGHFITPHIVKEIQDEQLDSLYRVPRKTSIDRKHYEDVVTGMRAAVTGGTCRVAGAILPDVEVCGKTGTAQNRGHDHSVFMGFAPMNNPKIAIAVYVENGGFGAVYGVPIGALMMEQYLKGKLSPEN | not soluble
MSLQTIKIGLPVPLSGPYGAEAQDQVRNAELAVKQFNDAGGLDGRKAQLLVRDDRLNPAEAATRALELIEKDGVNFIVGGLSAATQLSINNVTRQRKKLYISISQSDAINEAADASPYTFHEALNPHMTTQAVGKYVFKPGMRVAFLTADYAYGHEMTRGFTEVARQQGAEVVGEVKHPLGASDYSAFLPRLKALNPDVLVFNNFGADNRISIKQAADFGMKRNIRFVTPILTYTARVSGGAATYQDVVGGTQYYWAIQDSVPSAKAFNAAFQAENNGRFPSDYGAMAYSAVKSLLLAVRDAGSTDTDEVAAALRKLKYDTYKGAQYYRGCDQQSVQSVLVIQSVGKDNAHPDEVFKLLHTEAPSEGHHHHHH | soluble
